In PMC10825579:
Positions count from the first letter of the chain named.

B1: VHH clone Ig-S506 (cluster Ig-7) (VHH)
VHH: QVQLVESGGGLVQAGGSLRLSCAASGFTFDDYVIGWFRQAPGKEREGVSCISSSDGSTNYADSVKGRFTISSDNAKNTVYLQMNSLKPEDTAVYYCAEGPTVLDGCIYDSGSYYFSWGQGTQVTVSS
B2: VHH clone Ig-S1139 (cluster Ig-7) (VHH)
VHH: B1 VHH with N59Y, Y108V
B3: VHH clone Ig-S6584 (cluster Ig-7) (VHH)
VHH: B1 VHH with V33I, I34V, S52R, I70V, G111E
B4: VHH clone Ig-S8492 (cluster Ig-7) (VHH)
VHH: B1 VHH with S57R, N59D, E98A, D109Y
B5: VHH clone Ig-S675 (cluster Ig-7) (VHH)
VHH: B1 VHH with S25T, P41S, S52R, S57D, N59Y, I70V, Y108V, G111E

Target: Fab of trastuzumab (human)
Experiment: SPR; Fab of trastuzumab amine-coupled to a CM5 chip (1,000 RU), VHH as analyte in a 1/2 dilution series; Biacore X100, HBS-EP (10 mM HEPES pH 7.4, 150 mM NaCl, 3 mM EDTA, 0.005% P20), 20°C, 10 µL/min, association 360 s, dissociation 800 s; 1:1 binding model

Binder | Kd [nM] | koff [s⁻¹] | kon [M⁻¹ s⁻¹]
B1 | 246 | 0.0073 | 29700
B2 | 233 | 0.00554 | 23700
B3 | 5.99 | 0.000221 | 36900
B4 | 123 | 0.000245 | 1990
B5 | 0.155 | 4.71e-05 | 303000
